Positions count from the first letter of the chain named.
B1: AMH15/AML15 (antibody, IgG2, V domains shown)
VH: QVQLVESGGGVVQPGRSLRLSCAASGFTFSSYGMQWVRQAPGKGLEWVAVIWYDGNKKYYADSVKGRFTISRDNSKNTLYLQMNSLRAEDTAVYYCARGRVRDYYYGMDVWGQGTTVTVSS
VL: EIVMTQSPATLSVSPGERVTLSCRASQSVSSNLAWFQQKPGQAPRPLIYDASTRAAGIPARFSGSGSGTDFTLTISSLQSEDFAVYYCQQYDNWPLTFGGGTKVEIK
notes: Fully human mAb from IgG2 XenoMouse hybridomas; also called AM-15
B2: AMH14/AML14 (antibody, V domains shown)
VH: QVQLVQSGAEVKKPGASVKVSCKASGYTFTRYGISWVRQAPGQGLEWMGWISTYSGNTNYAQKLQGRVTMTTDTSTSTAYMELRSLRSDDTAVYYCARRQLYFDYWGQGTLVTVSS
VL: B1 VL with V19A, A56T, I58V
notes: Fully human mAb from IgG2 XenoMouse hybridomas; also called AM-14
B3: AMH21/AML21 (antibody, V domains shown)
VH: EVQLVESGGGSVQPGGSLRLSCAASGFTFSSYSMNWVRQAPGKGLEWVSIISSRSSIIHYADSVKGRFTISRDNAKNSLYLQMNSLRDEDTAVYYCARPKVGGGMDVWGQGTTVTVSS
VL: DIQMTQSPSSLSASVGDRVTITCRASQGISNYLAWYQQKPGKFPELLIYAASTLQSGVPSRFSGSGSGTDFTLTISSLQPEDVATYYCQKYNRAPFTFGPGTKVDIK
notes: Fully human mAb from IgG2 XenoMouse hybridomas; also called AM-21
B4: AMH12/AML12 (antibody, V domains shown)
VH: B2 VH with F29L, R31S, S55K, R99K, Y102V
VL: B1 VL with V19A, V29I, N32S, F36Y, P46L, D50G, A56T, D70E, D82N
notes: Fully human mAb from IgG2 XenoMouse hybridomas; also called AM-12
B5: AMH17/AML17 (antibody, V domains shown)
VH: B2 VH with S17A, S25T, F29L, R31S, T53A, N59K, R99K, Y102V
VL: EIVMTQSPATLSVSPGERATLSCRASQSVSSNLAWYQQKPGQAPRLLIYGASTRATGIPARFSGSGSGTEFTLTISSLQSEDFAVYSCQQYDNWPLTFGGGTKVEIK
notes: Fully human mAb from IgG2 XenoMouse hybridomas; also called AM-17
B6: AMH16/AML16 (antibody, V domains shown)
VH: B2 VH with R31S, T53A, S55N, N59K, A79V, R99K, Y102V
VL: EIVMTQSPATLSVSPGERATLSCRASQSISTSLAWYQQKPGQAPRLLIYGTSTRATGIPARFSGSGSGTEFTLTISSLQSEDFAVYFCQQYDIWPLTFGGGTKVEIK
notes: Fully human mAb from IgG2 XenoMouse hybridomas; also called AM-16
B7: AMH13/AML13 (antibody, V domains shown)
VH: B1 VH
VL: DIVMTQTPLSLSVTPGQPASIACKSSQSLLHSDGKTYLYWYLQKPGQPPQLLIYEVSTRFSGVPDRFSGSGSGTDFTLKISRVEAEDVGVFYCMQSIQLPLTFGGGTKVEIK
notes: Fully human mAb from IgG2 XenoMouse hybridomas
B8: AMH22/AML22 (antibody, V domains shown)
VH: B2 VH with T53A
VL: B1 VL
notes: Fully human mAb from IgG2 XenoMouse hybridomas; also called AM-22
B9: AMH11/AML11 (antibody, V domains shown)
VH: QVQLVESGGGVVQPGRSLRLSCATSGITFSSYGMHWVRQAPGKGLEWVAVIWYDGSNKYYADSVKGRFTISRDNSKNTLYLQMNSLRAEDTAVYYCARDTKDYWGQGTLVTVSS
VL: EIVMTQSPATLSVSPGERATLSCRASQSVSSNLAWYQQKPGQAPRLLIYGASTRAAGIPARFSGGGSGTAFTLTISNLQSEDFAVYYCQHYINWPKWTFGQGTKVDIK
notes: as for B7
B10: AMH5/AML5 (antibody, IgG2, V domains shown)
VH: QVQLQESGPGLVKPSETLPLTCTVSGGSIRSYYWSWIRQPAGKGLEWIGRIYRSGNTIYNPSLKSRVTMSIDTSKNQFSLTLSSVTAADTAVYYCARENYSESSGLYYYYGMDVWGQGTTVTVSS
VL: DIQMTQSPSSLSASVGDRVTITCRASQGIRNDLGWYQQKPGKAPKRLIYAASSFQSGVPSRFSGSGSGTGFTLTISSLQPEDFATYYCLQHNSYPPTFGQGTKVEIK
notes: Fully human mAb from IgG2 XenoMouse hybridomas; also called AM-5
B11: AMH1/AML1 (antibody, V domains shown)
VH: QVQLQESGPGLVKPSETLSLTCTVSGGSISNYYWNWIRQSPGKGLEWIGDIYYSGSTNYNPSLKSRVTISVDTSKNQFSLKLSSVTTADTAVYYCARDGELANYYGSGSYQFYYYYGMDVWGQGTTVTVSS
VL: B10 VL with Q3L, F54L, G70E, Y94N, P96F, Q100P, E105D
notes: as for B7
B12: AMH4/AML4 (antibody, V domains shown)
VH: B9 VH with T24A, T28N, Y59H, K101G, D102V
VL: not shown
notes: as for B7
B13: AMH18/AML18 (antibody, V domains shown)
VH: QVQLVQSGAEVKKPGASVKVSCKASGYSFTDYYMHWVRQAPGQGLEWMGWMHPNSGGTDLAQRFQGRVTMTRDTSISTAYMELSRLRSDDTAVYYCARGGYCSTLSCSFYWYFDLWGRGTLVTVSS
VL: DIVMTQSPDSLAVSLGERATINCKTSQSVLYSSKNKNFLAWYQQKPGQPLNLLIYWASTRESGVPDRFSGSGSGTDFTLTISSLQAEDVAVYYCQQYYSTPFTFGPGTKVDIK
notes: as for B7
B14: AMH10/AML10 (antibody, V domains shown)
VH: QVQLQESGPGLVKPSQTLSLTCTVSGGSISSGGYYWSWIRQHPGKGLEWIGYIYFSGSAYYNPSLKSRVAISVDTSKNQFSLKLSSVTAADTAVYYCAREYYDSSGYPDAFDIWGQGTMVTVSS
VL: DIQMTQSPSSVSASVGDRVTITCRASQGIRSWLAWYQQKPGKAPKLLIFAASSLQSGVPSRFSGSGSGTEFTLTISSLQPEDFATYYCQQANNFPRTFGQGTKVEIK
notes: Fully human mAb from IgG2 XenoMouse hybridomas; also called AM-10
B15: AMH7/AML7 (antibody, V domains shown)
VH: QVQLVQSGAEVKKPGASVKVSCKASGYTLTRYGISWVRQAPGQGLEWMGWISAYNGNTNYAQKLQGRVTMTTDTSTSTAYMELRSLRSDDTAVYYCARRDYDILTGYYNGFDPWGQGTLVTVSS
VL: B10 VL with F54L, G70E, N92K, P96L, Q100G
notes: as for B7
B16: AMH6/AML6 (antibody, V domains shown)
VH: B15 VH
VL: B10 VL with F54L, G70E, N92K, P96L, Q100G
notes: as for B7
B17: AMH8/AML8 (antibody, V domains shown)
VH: B15 VH with Y27N, L29F, R31G, K63N
VL: B10 VL with F54L, G70E, N92K, P96L, Q100G
notes: as for B7
B18: AMH20/AML20 (antibody, V domains shown)
VH: B3 VH with S11L, I50F, S53A, I57T, H59Y
VL: B3 VL
notes: Fully human mAb from IgG2 XenoMouse hybridomas; also called AM-20

target: T1, cynomolgus IL-17RA on cells (cynomolgus); experiment: FACS competition, non-clonal hybridoma supernatant; MFI of biotin-huIL-17A (competitor, 500 ng/ml) on cyno IL-17RA+ CHO cells
T1 construct: whole, on cells; also called CHO-cynoIL-17RA; cyno IL-17RA+ CHO cells

MFI | Binder
6 MFI | B1
10 MFI | B2
6 MFI | B3

target: T1, cynomolgus IL-17RA on cells; experiment: as above; remark: another data set of the same source
Procedure: (§1) Non-clonal hybridoma supernatants were prepared in volumes of 1-2 mls (the Ig concentrations were not determined for these supernatants). […] Anti-IL-17RA non-clonal hybridomas were selected for sub-cloning based on their performance in the CHO-IL-17RA FACS assay and HFF bioassay.

MFI | Binder
6 MFI | B4
8 MFI | B5
6 MFI | B6
6 MFI | B7

target: T1, cynomolgus IL-17RA on cells; experiment: cell-based or functional assay

IC50, cynomolgous IL-17A-induced IL-6 production from JTC-12 cells | Binder
~1.2 nM | B2

target: T2, Human IL-17RA full-length expressed on the surface of cells (human, UniProt Q96F46 33-866); experiment: FACS competition, non-clonal hybridoma supernatant; % cells positive for biotin-huIL-17A (competitor, 500 ng/ml) on huIL-17RA+ CHO cells (second % positive column)
T2 construct: used here for over-expressing CHO cells (FACS) and for the native receptor on human fibroblasts (bioassays); also called IL-17RA CHO cells; CHO-huIL-17RA
Procedure: as §1

% positive | Binder
1.36% | B4
1.23% | B5
0.76% | B6
0.89% | B7

target: T1, cynomolgus IL-17RA on cells; experiment: FACS competition, non-clonal hybridoma supernatant; MFI of biotin-huIL-17A (competitor, 500 ng/ml) on cyno IL-17RA+ CHO cells; remark: another data set of the same source

MFI | Binder
18 MFI | B8
9 MFI | B9
9 MFI | B10
11 MFI | B11

target: T3, huIL-17RA-FLAG-polyHis (human, UniProt Q96F46 33-320); experiment: Luminex binning; bead huIgG control (f15) + IL-17RA [D00007 Fig. 8B]
T3 construct: also called wild-type IL-17RA-FLAG-polyHis; HuIL-17RA-Flag-pHis
Procedure: Cross-competition studies were performed to determine IL-17RA binding characteristics of exemplary IL-17RA neutralizing antibodies. […] The method employed the Bio-Plex Workstation and software (BioRad, Hercules, Calif.), as well as reagents from Luminex® Corp. (Austin, Tex.). The manufacturers' basic protocols were followed except where noted below (see www.bio-rad.com and www.luminexcorp.com for details). […] The mouse-anti-human IgG coating was evaluated and the beads quantified by FACS. Each bead code was separately incubated with 10 ul of anti-IL-17RA antibody for 1 hour at room temperature and then washed. The beads were pooled and then dispensed to a 96-well filter plate (Millipore, Billerica, Mass., product #MSBVN1250). […] The PE-tagged monovalent antibody will detect the presence of the second mAb added to the well, but not the first mAb captured by the monovalent mouse-anti-human IgG antibody. Beads were resuspended in 120 ul PBSAT and at least 100 events/bead code were collected on the Bio-Plex workstation as per the manufacturer's recommended protocol.

normalized MFI | Binder
32 | B4
56 | B5
95 | B6
37 | B12
84 | B9
-5 | B13
140 | B14
123 | B15
26 | B16
54 | B17
28 | B3
50 | B18

target: T2, Human IL-17RA full-length expressed on …; experiment: FACS competition, non-clonal hybridoma supernatant; % cells positive for biotin-huIL-17A (competitor, 500 ng/ml) on huIL-17RA+ CHO cells
Procedure: as §1

% positive | Binder
1% | B4
1.75% | B5
1.84% | B6
1.52% | B7

Reference: US20100292442A1 (Amgen, published 2010)
